Experimental data from paper doi:10.1101/2020.07.08.194076v1.

B1: SlG1 (Solanum lycopersicum) (protein)
chain: VSSKAEKFILPEFEFQEYMVTKAIKVNKALDEAIPMQEPIKVHEAMRYSLLAGGKRVRPILCMASCEVVGGDESLAIPAACAVEMIHTMSLVHDDLPCMDNDDLRRGKPTNHKIFGENTAVLAGDALLSLAFEHVATKTQNVPPQRVVQAIGELGSAVGSEGLVAGQIVDLASEGKQVSLTELEYIHHHKTSKLLEAAVVCGAIMGGGNEVDVERMRSYARCIGLLFQVVDDILDVTKSSDELGKTAGKDLITDKATYPKLMGLEKARQYAGELMAKAMNELSYFDYAKAAPLYHIASYIANRQN
B2: AtG11 (Arabidopsis thaliana) (protein)
chain: SSIVSSSVVTKEDNLRQSEPSSFDFMSYIITKAELVNKALDSAVPLREPLKIHEAMRYSLLAGGKRVRPVLCIAACELVGGEESTAMPAACAVEMIHTMSLIHDDLPCMDNDDLRRGKPTNHKVFGEDVAVLAGDALLSFAFEHLASATSSDVVSPVRVVRAVGELAKAIGTEGLVAGQVVDISSEGLDLNDVGLEHLEFIHLHKTAALLEASAVLGAIVGGGSDDEIERLRKFARCIGLLFQVVDDILDVTKSSKELGKTAGKDLIADKLTYPKIMGLEKSREFAEKLNREARDQLLGFDSDKVAPLLALANYIAYRQN
B3: SlG2 (Solanum lycopersicum) (protein)
chain: IATNEKVVMEKEEFNFKVYVAEKAICVNKALDEAIMVKDPPKIHEAMRYSLLAGGKRVRPMLCLAACELVGGNQGNAMAAACAVEMIHTMSLIHDDLPCMDDDDLRRGKPTNHKVYGEDVAVLAGDALLAFAFEYLATATTGVPPSRILVAVAELAKSVGTEGLVAGQVADLACTGNPNVGLEMLEFIHIHKTAALLEASVVIGAILGGGADEEVDKLRRFAQCIGLLFQVVDDILDVTKSSSELGKTAGKDLAVDKTTYPKLLGLEKAKEFAAELNGEAKQQLAAFDSHKAAPLIALADYIANRQN

Key:
[1] = substrate: C=C(C)CCO[P@@](=O)(O)OP(=O)(O)O; experiment: purified protein; settings: co-substrate 100 µM DMAPP
[2] = substrate: CC(C)=CCOP(=O)(O)OP(=O)(O)O; experiment: purified protein; settings: co-substrate 100 µM IPP

| Protein | Km [1] [µM] | Km [2] [µM] |
| --- | --- | --- |
| B1 | 74.18 ± 7.55 | 31.82 ± 2.92 |
| B2 | 38.49 ± 4.94 | 32.86 ± 4.86 |
| B3 | 79.75 ± 8.33 | 49.55 ± 5.31 |
